T1: PUF4 RNA-binding domain (Saccharomyces cerevisiae, UniProt P25339 537-888)
T1 sequence: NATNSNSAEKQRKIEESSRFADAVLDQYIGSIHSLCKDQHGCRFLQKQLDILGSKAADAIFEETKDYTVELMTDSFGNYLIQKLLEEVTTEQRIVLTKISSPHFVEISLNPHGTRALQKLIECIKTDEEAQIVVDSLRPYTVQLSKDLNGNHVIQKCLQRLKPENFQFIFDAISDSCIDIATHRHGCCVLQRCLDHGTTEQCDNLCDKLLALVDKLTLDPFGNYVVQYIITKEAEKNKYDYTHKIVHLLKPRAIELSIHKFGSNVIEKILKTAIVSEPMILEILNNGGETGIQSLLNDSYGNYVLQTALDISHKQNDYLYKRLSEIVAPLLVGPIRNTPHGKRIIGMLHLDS


Biological target: T1, PUF4 RNA-binding domain
Experiment: Mg; RNA-MaP; 20 mM Na-HEPES pH 7.4, 30 mM KOAc, 0.75 mM MgCl2, 0.1% Tween-20, 5% glycerol, 0.1 mg/mL BSA, 2 mM DTT; 25 C; 0.0125-409.6 nM protein
Conditions: tags: N-His6-TEV cleaved; C-SNAP kept, Cy3B-labelled; label: tethered on chip by stalled RNA polymerase

Binder	Kd
Ib_S2_P3E.1_K3.1_C3.1_H3.1_[A4G]_A3.1_[T5C]_F3.1_T3.1 (ssRNA) RNA: UUUGAUUAAUAUGAUAUCGUUCUUUCUUGUGCAUAUUCUUUCUCGAUAUCAUAUUAAUCUUU	24.6 nM
Ie_S4_P4E.1_K4.1_C4.1_H4.1_A4.1_[+6CCCT]_F4.1_T4.1 (ssRNA) RNA: UUUGACAACUGAUCGUUCUUUCUUGUAUACCCUUUAUUCUUUCUCGAUCAGUUGUCUUU	22.2 nM
Ie_S4_P4E.1_K4.1_C4.1_H4.1_A4.1_[+7C]_F4.1_T4.1 (ssRNA) RNA: UUUGACAACUGAUCGUUCUUUCUUGUAUAUCUAUUCUUUCUCGAUCAGUUGUCUUU	1.92 nM
Ie_S4_P4E.1_K4.1_C4.1_H4.1_A4.1_[+7CTC]_F4.1_T4.1 (ssRNA) RNA: UUUGACAACUGAUCGUUCUUUCUUGUAUAUCUCUAUUCUUUCUCGAUCAGUUGUCUUU	10.3 nM
Ie_S4_P4E.1_K4.1_C4.1_H4.1_A4.1_[+7TTC]_F4.1_T4.1 (ssRNA) RNA: UUUGACAACUGAUCGUUCUUUCUUGUAUAUUUCUAUUCUUUCUCGAUCAGUUGUCUUU	4.42 nM
Ie_S4_P4E.1_K4.1_C4.1_H4.1_A4.1_[+7TCTC]_F4.1_T4.1 (ssRNA) RNA: UUUGACAACUGAUCGUUCUUUCUUGUAUAUUCUCUAUUCUUUCUCGAUCAGUUGUCUUU	6.61 nM
Ie_S4_P4E.1_K4.1_C4.1_H4.1_A4.1_F4.1_[+8C]_T4.1 (ssRNA) RNA: UUUGACAACUGAUCGUUCUUUCUUGUAUAUUCAUUCUUUCUCGAUCAGUUGUCUUU	13.1 nM
Ie_S4_P4E.1_K4.1_C4.1_H4.1_A4.1_F4.1_[+8CT]_T4.1 (ssRNA) RNA: UUUGACAACUGAUCGUUCUUUCUUGUAUAUUCUAUUCUUUCUCGAUCAGUUGUCUUU	3.92 nM
Ie_S4_P4E.1_K4.1_C4.1_H4.1_A4.1_F4.1_[+8TCC]_T4.1 (ssRNA) RNA: UUUGACAACUGAUCGUUCUUUCUUGUAUAUUUCCAUUCUUUCUCGAUCAGUUGUCUUU	4.35 nM
Ie_S4_P4E.1_K4.1_C4.1_H4.1_A4.1_F4.1_[+8TCTC]_T4.1 (ssRNA) RNA: UUUGACAACUGAUCGUUCUUUCUUGUAUAUUUCUCAUUCUUUCUCGAUCAGUUGUCUUU	5.61 nM
Ie_S4_P4E.1_K4.1_C4.1_H4.1_A4.1_F4.1_[+8CCTCT]_T4.1 (ssRNA) RNA: UUUGACAACUGAUCGUUCUUUCUUGUAUAUUCCUCUAUUCUUUCUCGAUCAGUUGUCUUU	6.66 nM
Ib_S2_P3E.1_K3.1_C3.1_H3.1_[A4C]_A3.1_[T5C]_F3.1_T3.1 (ssRNA) RNA: UUUGAUUAAUAUGAUAUCGUUCUUUCUUGUCCAUAUUCUUUCUCGAUAUCAUAUUAAUCUUU	581 nM
Ie_S4_P4E.1_K4.1_C4.1_H4.1_A4.1_F4.1_[+9C]_T4.1 (ssRNA) RNA: UUUGACAACUGAUCGUUCUUUCUUGUAUAUUACUUCUUUCUCGAUCAGUUGUCUUU	1.51 nM
Ie_S4_P4E.1_K4.1_C4.1_H4.1_A4.1_F4.1_[+9CC]_T4.1 (ssRNA) RNA: UUUGACAACUGAUCGUUCUUUCUUGUAUAUUACCUUCUUUCUCGAUCAGUUGUCUUU	0.607 nM
Ie_S4_P4E.1_K4.1_C4.1_H4.1_A4.1_F4.1_[+9TC]_T4.1 (ssRNA) RNA: UUUGACAACUGAUCGUUCUUUCUUGUAUAUUAUCUUCUUUCUCGAUCAGUUGUCUUU	0.647 nM
Ie_S4_P4E.1_K4.1_C4.1_H4.1_A4.1_F4.1_[+9CTC]_T4.1 (ssRNA) RNA: UUUGACAACUGAUCGUUCUUUCUUGUAUAUUACUCUUCUUUCUCGAUCAGUUGUCUUU	1.39 nM
Ie_S4_P4E.1_K4.1_C4.1_H4.1_A4.1_F4.1_[+9TTC]_T4.1 (ssRNA) RNA: UUUGACAACUGAUCGUUCUUUCUUGUAUAUUAUUCUUCUUUCUCGAUCAGUUGUCUUU	0.42 nM
Ie_S4_P4E.1_K4.1_C4.1_H4.1_A4.1_F4.1_[+9CTT]_T4.1 (ssRNA) RNA: UUUGACAACUGAUCGUUCUUUCUUGUAUAUUACUUUUCUUUCUCGAUCAGUUGUCUUU	1.08 nM
Ie_S4_P4E.1_K4.1_C4.1_H4.1_A4.1_F4.1_[+9CTCT]_T4.1 (ssRNA) RNA: UUUGACAACUGAUCGUUCUUUCUUGUAUAUUACUCUUUCUUUCUCGAUCAGUUGUCUUU	0.777 nM
Ie_S4_P4E.1_K4.1_C4.1_H4.1_A4.1_F4.1_[+9TCTC]_T4.1 (ssRNA) RNA: UUUGACAACUGAUCGUUCUUUCUUGUAUAUUAUCUCUUCUUUCUCGAUCAGUUGUCUUU	0.36 nM
Ie_S4_P4E.1_K4.1_C4.1_H4.1_A4.1_F4.1_[+9TCTCT]_T4.1 (ssRNA) RNA: UUUGACAACUGAUCGUUCUUUCUUGUAUAUUAUCUCUUUCUUUCUCGAUCAGUUGUCUUU	0.343 nM
Ie_S4_P4E.1_K4.1_C4.1_H4.1_A4.1_F4.1_[+9CCCTT]_T4.1 (ssRNA) RNA: UUUGACAACUGAUCGUUCUUUCUUGUAUAUUACCCUUUUCUUUCUCGAUCAGUUGUCUUU	0.565 nM
Ic_S2_P3E.1_K3.1_C3.1_H3.1_A3.1_[A6G]_F3.1_T3.1 (ssRNA) RNA: UUUGAUUAAUAUGAUAUCGUUCUUUCUUGUAUGUAUUCUUUCUCGAUAUCAUAUUAAUCUUU	26.3 nM

Binder	Kd
Ib_S2_P3E.1_K3.1_C3.1_H3.1_[A4C]_A3.1_[T5A]_F3.1_T3.1 (ssRNA) RNA: UUUGAUUAAUAUGAUAUCGUUCUUUCUUGUCAAUAUUCUUUCUCGAUAUCAUAUUAAUCUUU	1360 nM
Ie_S4_P5E.1_K5.1_C5.1_H5.1_[+1TC]_A5.1_F5.1_T5.1 (ssRNA) RNA: UUUGACAACUGAUCGUUCUUUCUUUCGUAUUAUUAUUCUUUCUCGAUCAGUUGUCUUU	288 nM
Ie_S4_P5E.1_K5.1_C5.1_H5.1_[+1TT]_A5.1_F5.1_T5.1 (ssRNA) RNA: UUUGACAACUGAUCGUUCUUUCUUUUGUAUUAUUAUUCUUUCUCGAUCAGUUGUCUUU	1.52 nM
Ie_S4_P5E.1_K5.1_C5.1_H5.1_[+1CCT]_A5.1_F5.1_T5.1 (ssRNA) RNA: UUUGACAACUGAUCGUUCUUUCUUCCUGUAUUAUUAUUCUUUCUCGAUCAGUUGUCUUU	1.07 nM
Ie_S4_P5E.1_K5.1_C5.1_H5.1_[+1CTC]_A5.1_F5.1_T5.1 (ssRNA) RNA: UUUGACAACUGAUCGUUCUUUCUUCUCGUAUUAUUAUUCUUUCUCGAUCAGUUGUCUUU	216 nM
Ie_S4_P5E.1_K5.1_C5.1_H5.1_[+1CTT]_A5.1_F5.1_T5.1 (ssRNA) RNA: UUUGACAACUGAUCGUUCUUUCUUCUUGUAUUAUUAUUCUUUCUCGAUCAGUUGUCUUU	1.38 nM
Ie_S4_P5E.1_K5.1_C5.1_H5.1_[+1CCCT]_A5.1_F5.1_T5.1 (ssRNA) RNA: UUUGACAACUGAUCGUUCUUUCUUCCCUGUAUUAUUAUUCUUUCUCGAUCAGUUGUCUUU	1.21 nM
Ie_S4_P5E.1_K5.1_C5.1_H5.1_[+3T]_A5.1_F5.1_T5.1 (ssRNA) RNA: UUUGACAACUGAUCGUUCUUUCUUGUUAUUAUUAUUCUUUCUCGAUCAGUUGUCUUU	41.6 nM
Ie_S4_P5E.1_K5.1_C5.1_H5.1_[+3CT]_A5.1_F5.1_T5.1 (ssRNA) RNA: UUUGACAACUGAUCGUUCUUUCUUGUCUAUUAUUAUUCUUUCUCGAUCAGUUGUCUUU	10.9 nM
Ie_S4_P5E.1_K5.1_C5.1_H5.1_[+2TCC]_A5.1_F5.1_T5.1 (ssRNA) RNA: UUUGACAACUGAUCGUUCUUUCUUGUCCUAUUAUUAUUCUUUCUCGAUCAGUUGUCUUU	18.4 nM
Ie_S4_P5E.1_K5.1_C5.1_H5.1_[+2TCT]_A5.1_F5.1_T5.1 (ssRNA) RNA: UUUGACAACUGAUCGUUCUUUCUUGUCUUAUUAUUAUUCUUUCUCGAUCAGUUGUCUUU	15.3 nM
Ib_S2_P3E.1_K3.1_C3.1_H3.1_[A4T]_A3.1_[T5A]_F3.1_T3.1 (ssRNA) RNA: UUUGAUUAAUAUGAUAUCGUUCUUUCUUGUUAAUAUUCUUUCUCGAUAUCAUAUUAAUCUUU	670 nM
Ie_S4_P5E.1_K5.1_C5.1_H5.1_[+2CCTC]_A5.1_F5.1_T5.1 (ssRNA) RNA: UUUGACAACUGAUCGUUCUUUCUUGCCUCUAUUAUUAUUCUUUCUCGAUCAGUUGUCUUU	863 nM
Ie_S4_P5E.1_K5.1_C5.1_H5.1_[+2TTCC]_A5.1_F5.1_T5.1 (ssRNA) RNA: UUUGACAACUGAUCGUUCUUUCUUGUUCCUAUUAUUAUUCUUUCUCGAUCAGUUGUCUUU	26.4 nM
Ie_S4_P5E.1_K5.1_C5.1_H5.1_[+3C]_A5.1_F5.1_T5.1 (ssRNA) RNA: UUUGACAACUGAUCGUUCUUUCUUGUCAUUAUUAUUCUUUCUCGAUCAGUUGUCUUU	34.1 nM
Ie_S4_P5E.1_K5.1_C5.1_H5.1_[+3TC]_A5.1_F5.1_T5.1 (ssRNA) RNA: UUUGACAACUGAUCGUUCUUUCUUGUUCAUUAUUAUUCUUUCUCGAUCAGUUGUCUUU	2.68 nM
Ie_S4_P5E.1_K5.1_C5.1_H5.1_[+3TT]_A5.1_F5.1_T5.1 (ssRNA) RNA: UUUGACAACUGAUCGUUCUUUCUUGUUUAUUAUUAUUCUUUCUCGAUCAGUUGUCUUU	8.89 nM
Ie_S4_P5E.1_K5.1_C5.1_H5.1_[+3CCC]_A5.1_F5.1_T5.1 (ssRNA) RNA: UUUGACAACUGAUCGUUCUUUCUUGUCCCAUUAUUAUUCUUUCUCGAUCAGUUGUCUUU	27.8 nM
Ie_S4_P5E.1_K5.1_C5.1_H5.1_[+3TCC]_A5.1_F5.1_T5.1 (ssRNA) RNA: UUUGACAACUGAUCGUUCUUUCUUGUUCCAUUAUUAUUCUUUCUCGAUCAGUUGUCUUU	9.83 nM
Ie_S4_P5E.1_K5.1_C5.1_H5.1_[+3TCT]_A5.1_F5.1_T5.1 (ssRNA) RNA: UUUGACAACUGAUCGUUCUUUCUUGUUCUAUUAUUAUUCUUUCUCGAUCAGUUGUCUUU	8.87 nM
Ie_S4_P5E.1_K5.1_C5.1_H5.1_[+3TTT]_A5.1_F5.1_T5.1 (ssRNA) RNA: UUUGACAACUGAUCGUUCUUUCUUGUUUUAUUAUUAUUCUUUCUCGAUCAGUUGUCUUU	15.6 nM
Ie_S4_P5E.1_K5.1_C5.1_H5.1_[+3CTCT]_A5.1_F5.1_T5.1 (ssRNA) RNA: UUUGACAACUGAUCGUUCUUUCUUGUCUCUAUUAUUAUUCUUUCUCGAUCAGUUGUCUUU	56.3 nM
Ib_S2_P3E.1_K3.1_C3.1_H3.1_[A4G]_A3.1_[A6C]_F3.1_T3.1 (ssRNA) RNA: UUUGAUUAAUAUGAUAUCGUUCUUUCUUGUGUCUAUUCUUUCUCGAUAUCAUAUUAAUCUUU	107 nM

— article PMC9352680, “A comprehensive thermodynamic model for RNA binding by the Saccharomyces cerevisiae Pumilio protein PUF4”
